For this experiment, the target named is CD55 on healthy donor erythrocytes (human) (UniProt P08174). Briefly: flow cytometry on healthy donor erythrocytes, mAb at 10 µg/ml, positive control. For orientation: A flow cytometer gives signals particle by particle.

The record followed here is patent US20220324997A1.

UniProt P08174, sequence (P08174 35-353): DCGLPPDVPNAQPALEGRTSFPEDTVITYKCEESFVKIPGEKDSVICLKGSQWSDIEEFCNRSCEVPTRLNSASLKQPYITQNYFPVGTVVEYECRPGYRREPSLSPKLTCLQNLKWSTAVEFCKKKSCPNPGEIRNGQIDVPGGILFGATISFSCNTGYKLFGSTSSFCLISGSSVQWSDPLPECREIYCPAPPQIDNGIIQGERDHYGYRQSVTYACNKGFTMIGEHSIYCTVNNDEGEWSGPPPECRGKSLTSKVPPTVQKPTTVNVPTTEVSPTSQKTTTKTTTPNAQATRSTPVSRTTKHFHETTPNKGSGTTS

The substance 791T/36 (anti-CD55 mAb) (antibody) had a Gm (geometric mean fluorescence) of 202.
